Non-standard residues stand in square brackets, D forms with d. No end group written: not given here.
Target: CCR2 on mouse monocytes (mouse, UniProt P51683 1-373)
Assay: cell-based or functional assay

CCR2 on mouse monocytes, sequence (P51683 whole entry): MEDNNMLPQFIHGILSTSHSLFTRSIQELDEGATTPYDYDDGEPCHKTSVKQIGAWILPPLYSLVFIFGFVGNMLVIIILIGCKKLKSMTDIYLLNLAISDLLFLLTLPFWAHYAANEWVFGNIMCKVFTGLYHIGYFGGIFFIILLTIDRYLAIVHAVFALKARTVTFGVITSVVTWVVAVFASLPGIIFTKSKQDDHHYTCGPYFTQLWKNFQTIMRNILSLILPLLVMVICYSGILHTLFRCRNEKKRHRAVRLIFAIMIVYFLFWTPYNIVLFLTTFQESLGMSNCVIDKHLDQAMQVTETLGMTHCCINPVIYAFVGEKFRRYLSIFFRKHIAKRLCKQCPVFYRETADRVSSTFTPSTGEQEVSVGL

B1: ECL1 (C) inverso (peptide)
peptide: [dL]G[dT][dF][dL][dK][dC]
- inhibition of migration of mouse monocytes and classical monocytes, IC50: 2000 nM
